Source: paper PMC7900914 (Nature structural & molecular biology, 2017)

Molecular target: HLA-B*57:01–TW10 (human |  | HIV-1)
Assay: SPR

B1: KIR3DL1*001 (similar construct, from insect cells) (receptor)
chain: HMGGQDKPFLSAWPSAVVPRGGHVTLRCHYRHRFNNFMLYKEDRIHIPIFHGRIFQESFNMSPVTTAHAGNYTCRGSHPHSPTGWSAPSNPVVIMVTGNHRKPSLLAHPGPLVKSGERVILQCWSDIMFEHFFLHKEGISKDPSRLVGQIHDGVSKANFSIGPMMLALAGTYRCYGSVTHTPYQLSAPSDPLDIVVTGPYEKPSLSAQPGPKVQAGESVTLSCSSRSSYDMYHLSREGGAHERRLPAVRKVNRTFQADFPLGPATHGGTYRCFGSFRHSPYEWSDPSDPLLVSVTGNPS
Question: With B1 as the binder, how does the Kd read?
Answer: ~60 µM
